According to the supplement of paper PMC9233669:
Variants at the floor of the assay were thinned out.

Experiments:
biotinyl-Trp-oxazolone = test: self-aminoacylation, catalytic enhancement (BWO) (fold over background); higher = more active; k-Seq, kA / k0A0; sequences stand for … in GGGAAUGGAUCCACAUCUACGAAUUC…UUCACUGCAGACUUGACGAAGCUG
Outline: (§1)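 Mutagenized RNA pools with a 21-nt variable region (0.43 μM) were reacted with each biotinyl-aminoacyl-oxazolone at 2–1250 μM for 90 minutes at room temperature, in 50 μL HEPES/NaCl/KCl/MgCl2/CaCl2 buffer containing 5% acetonitrile at pH 6.9–7.0. RNA captured on streptavidin was quantified by triplicate qPCR and by Illumina sequencing. The fraction reacted for each sequence was fit to a pseudo-first-order model with bootstrapping, and catalytic enhancement is the median kA divided by the uncatalyzed rate, taken as the low-activity peak of a bimodal Gaussian fit.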

biotinyl-Phe-oxazolone = test: self-aminoacylation, catalytic enhancement (BFO) (fold over background); higher = more active; k-Seq, kA / k0A0; sequences stand for … in GGGAAUGGAUCCACAUCUACGAAUUC…UUCACUGCAGACUUGACGAAGCUG
Outline: as §1

biotinyl-Ile-oxazolone = test: self-aminoacylation, catalytic enhancement (BIO) (fold over background); higher = more active; k-Seq, kA / k0A0; sequences stand for … in GGGAAUGGAUCCACAUCUACGAAUUC…UUCACUGCAGACUUGACGAAGCUG
Outline: as §1

biotinyl-Met-oxazolone = test: self-aminoacylation, catalytic enhancement (BMO) (fold over background); higher = more active; k-Seq, kA / k0A0; sequences stand for … in GGGAAUGGAUCCACAUCUACGAAUUC…UUCACUGCAGACUUGACGAAGCUG
Outline: as §1

biotinyl-Val-oxazolone = test: self-aminoacylation, catalytic enhancement (BVO) (fold over background); higher = more active; k-Seq, kA / k0A0; sequences stand for … in GGGAAUGGAUCCACAUCUACGAAUUC…UUCACUGCAGACUUGACGAAGCUG
Outline: as §1

biotinyl-Leu-oxazolone = test: self-aminoacylation, catalytic enhancement (BLO) (fold over background); higher = more active; k-Seq, kA / k0A0; sequences stand for … in GGGAAUGGAUCCACAUCUACGAAUUC…UUCACUGCAGACUUGACGAAGCUG
Outline: as §1

Sequence	self-aminoacylation (biotinyl-Trp-oxazolone)	self-aminoacylation (biotinyl-Phe-oxazolone)	self-aminoacylation (biotinyl-Ile-oxazolone)	self-aminoacylation (biotinyl-Met-oxazolone)	self-aminoacylation (biotinyl-Val-oxazolone)	self-aminoacylation (biotinyl-Leu-oxazolone)
AUUACCCGGGUUAUCGAGUGA [Fam2.1 aminoacylation ribozyme variant]	14.6	94.5	5.68	13.3	5.94	14.4
AUUACCCGUGUCAUCGAGUGA [Fam2.1 aminoacylation ribozyme variant]	10.7	38.3	4.4	8.54	4.8	8.6
AUUACCCUAGGCAUCGAGUGA [Fam2.1 aminoacylation ribozyme variant]	6.47	18.1	2.47	5.3	2.68	5.37
AUUACCCUAGUCAUCGAGUGC [Fam2.1 aminoacylation ribozyme variant]	0.589	1.25	1.15	1.06	1.04	1.35
AUUACCCUAGUCAUCGUGUGA [Fam2.1 aminoacylation ribozyme variant]	2.89	5.35	1.25	2.4	1.29	2.17
AUUACCCUAGUCAUCUAGUGA [Fam2.1 aminoacylation ribozyme variant]	10.6	27.6	3.37	7.37	3.59	6.97
AUUACCCUCCUCAUCGAGUGA [Fam2.1 aminoacylation ribozyme variant]	4.74	15	1.81	3.98	2.08	3.99
AUUACCCUCGACAUCGAGUGA [Fam2.1 aminoacylation ribozyme variant]	14.5	83	4.58	11.5	5.56	12.7
AUUACCCUCGUCAACGAGUGA [Fam2.1 aminoacylation ribozyme variant]	2.82	5.53	1.89	3.05	2.06	3
AUUACCCUCGUCAUCGAGUAA [Fam2.1 aminoacylation ribozyme variant]	0.978	0.716	0.904	0.866	1.02	0.985
AUUACCCUCGUCAUCGCGUGA [Fam2.1 aminoacylation ribozyme variant]	6.81	51.9	3.63	6.01	4.02	6.51
AUUACCCUCGUGAUCGAGUGA [Fam2.1 aminoacylation ribozyme variant]	10.8	70.3	4.47	10.4	4.09	11.6
AUUACCCUGAACAUCGAGUGA [Fam2.1 aminoacylation ribozyme variant]	8.05	24.2	3.4	6.65	3.35	6.97
AUUACCCUGAUCAUCCAGUGA [Fam2.1 aminoacylation ribozyme variant]	7.09	16.9	2.91	5.79	3.49	5.22
AUUACCCUGAUCAUCGAGUGG [Fam2.1 aminoacylation ribozyme variant]	2.13	2.77	1.52	2.82	1.62	2.42
AUUACCCUGAUCAUUGAGUGA [Fam2.1 aminoacylation ribozyme variant]	15.6	68.4	5.87	12.9	5.87	12.2
AUUACCCUGAUGAUCGAGUGA [Fam2.1 aminoacylation ribozyme variant]	14.4	79.7	5.5	12.7	5.25	13
AUUACCCUGCUCAUCCAGUGA [Fam2.1 aminoacylation ribozyme variant]	7.43	34.2	3.06	5.54	3.34	6.26
AUUACCCUGCUCAUCGAGCGA [Fam2.1 aminoacylation ribozyme variant]	0.81	0.874	1.12	1.3	0.851	1.4
AUUACCCUGCUCAUCGAGUCA [Fam2.1 aminoacylation ribozyme variant]	0.425	0.452	0.779	0.64	0.819	0.646
AUUACCCUGCUCAUCGCGUGA [Fam2.1 aminoacylation ribozyme variant]	16.9	152	7.11	17.1	7.29	16.4
AUUACCCUGCUCAUCUAGUGA [Fam2.1 aminoacylation ribozyme variant]	8.05	29.8	2.97	6.35	3.3	6.75

Sequence	self-aminoacylation (biotinyl-Trp-oxazolone)	self-aminoacylation (biotinyl-Phe-oxazolone)	self-aminoacylation (biotinyl-Ile-oxazolone)	self-aminoacylation (biotinyl-Met-oxazolone)	self-aminoacylation (biotinyl-Val-oxazolone)	self-aminoacylation (biotinyl-Leu-oxazolone)
AUUACCCUGCUGAUCGAGUGA [Fam2.1 aminoacylation ribozyme variant]	2.77	10.4	1.93	2.68	1.67	2.87
AUUACCCUGGACAUCCAGUGA [Fam2.1 aminoacylation ribozyme variant]	4.13	15.9	2.61	3.32	2.51	3.82
AUUACCCUGGACAUCGACUGA [Fam2.1 aminoacylation ribozyme variant]	0.238	0.713	0.543	0.616	0.626	0.529
AUUACCCUGGACAUCGAGGGA [Fam2.1 aminoacylation ribozyme variant]	2.17	1.26	1.53	2.18	1.19	1.46
AUUACCCUGGACAUCGAUUGA [Fam2.1 aminoacylation ribozyme variant]	0.675	0.447	0.804	0.785	0.863	0.831
AUUACCCUGGACAUCUAGUGA [Fam2.1 aminoacylation ribozyme variant]	5.51	17	2.55	5.4	2.71	5.12
AUUACCCUGGCAAUCGAGUGA [Fam2.1 aminoacylation ribozyme variant]	5.92	28.2	2.78	4.83	3.02	5.38
AUUACCCUGGCCAGCGAGUGA [Fam2.1 aminoacylation ribozyme variant]	4.9	18	2.73	5	3.29	4.29
AUUACCCUGGCCAUCGAGAGA [Fam2.1 aminoacylation ribozyme variant]	0.803	0.439	0.69	1.02	1.01	0.919
AUUACCCUGGCCAUCGAGUCA [Fam2.1 aminoacylation ribozyme variant]	0.66	0.47	0.78	0.714	0.826	0.727
AUUACCCUGGCCAUCUAGUGA [Fam2.1 aminoacylation ribozyme variant]	4.43	28.6	2.93	4.68	2.79	5.69
AUUACCCUGGCCAUGGAGUGA [Fam2.1 aminoacylation ribozyme variant]	5.9	19.7	3.24	4.45	2.79	4.12
AUUACCCUGGCGAUCGAGUGA [Fam2.1 aminoacylation ribozyme variant]	4.59	24.3	2.12	4.06	2.69	4.77
AUUACCCUGGGCACCGAGUGA [Fam2.1 aminoacylation ribozyme variant]	5.46	37.9	3.37	6.11	2.84	6.68
AUUACCCUGGGCAUCCAGUGA [Fam2.1 aminoacylation ribozyme variant]	7.23	50.6	3.76	8.06	3.83	8.87
AUUACCCUGGGCAUCGAAUGA [Fam2.1 aminoacylation ribozyme variant]	2.01	1.14	0.945	0.647	0.934	0.912
AUUACCCUGGGCAUCGCGUGA [Fam2.1 aminoacylation ribozyme variant]	7.7	48.7	3.74	6.98	5.38	9.41
AUUACCCUGGUAAUCCAGUGA [Fam2.1 aminoacylation ribozyme variant]	10.7	51.9	4.07	8.47	4.36	8.77
AUUACCCUGGUAAUCGGGUGA [Fam2.1 aminoacylation ribozyme variant]	12.1	86.9	4.26	12.4	4.83	13.1
AUUACCCUGGUAAUUGAGUGA [Fam2.1 aminoacylation ribozyme variant]	19.2	117	6.96	16.2	6.33	17.1
AUUACCCUGGUCAACCAGUGA [Fam2.1 aminoacylation ribozyme variant]	7.15	39.2	3.9	6.42	3.78	6.76
